Results reported in publication PMC4109901, “Functional EF-Hands in Neuronal Calcium Sensor GCAP2 Determine Its Phosphorylation State and Subcellular Distribution In Vivo, and Are Essential for Photoreceptor Cell Integrity” (PLoS Genetics, 2014).

B1: recombinant bGCAP2, mock-treated (unphosphorylated) (natural protein, bovine, UniProt P51177 1-204, looked up)
chain: MGQQFSWEEAEENGAVGAADAAQLQEWYKKFLEECPSGTLFMHEFKRFFKVPDNEEATQYVEAMFRAFDTNGDNTIDFLEYVAALNLVLRGTLEHKLKWTFKIYDKDRNGCIDRQELLDIVESIYKLKKACSVEVEAEQQGKLLTPEEVVDRIFLLVDENGDGQLSLNEFVEGARRDKWVMKMLQMDLNPSSWISQQRRKSAMF
notes: Cross-linked to magnetic beads for the pull-down; also called mock bGCAP2; recombinant wildtype bGCAP2
B2: recombinant phosphorylated bGCAP2 (natural protein, bovine, UniProt P51177 1-204, looked up)
chain: MGQQFSWEEAEENGAVGAADAAQLQEWYKKFLEECPSGTLFMHEFKRFFKVPDNEEATQYVEAMFRAFDTNGDNTIDFLEYVAALNLVLRGTLEHKLKWTFKIYDKDRNGCIDRQELLDIVESIYKLKKACSVEVEAEQQGKLLTPEEVVDRIFLLVDENGDGQLSLNEFVEGARRDKWVMKMLQMDLNPSSWISQQRRKSAMF
modifications: phosphorylated in vitro by PKG; Ser201 named as the site
notes: Cross-linked to magnetic beads for the pull-down; also called P-GCAP2
B3: recombinant bEF^−GCAP2, mock-treated (unphosphorylated) (natural protein, bovine, UniProt P51177 1-204, looked up)
chain: MGQQFSWEEAEENGAVGAADAAQLQEWYKKFLEECPSGTLFMHEFKRFFKVPDNEEATQYVEAMFRAFDTNGDNTIDFLQYVAALNLVLRGTLEHKLKWTFKIYDKDRNGCIDRQQLLDIVESIYKLKKACSVEVEAEQQGKLLTPEEVVDRIFLLVNENGDGQLSLNEFVEGARRDKWVMKMLQMDLNPSSWISQQRRKSAMF
notes: Cross-linked to magnetic beads for the pull-down; also called mock bEF^−GCAP2; unphosphorylated bEF^−GCAP2
B4: recombinant phosphorylated bEF^−GCAP2 (natural protein, bovine, UniProt P51177 1-204, looked up)
chain: MGQQFSWEEAEENGAVGAADAAQLQEWYKKFLEECPSGTLFMHEFKRFFKVPDNEEATQYVEAMFRAFDTNGDNTIDFLQYVAALNLVLRGTLEHKLKWTFKIYDKDRNGCIDRQQLLDIVESIYKLKKACSVEVEAEQQGKLLTPEEVVDRIFLLVNENGDGQLSLNEFVEGARRDKWVMKMLQMDLNPSSWISQQRRKSAMF
modifications: phosphorylated in vitro by PKG; Ser201 named as the site
notes: Cross-linked to magnetic beads for the pull-down

Target: the molecule itself
Experiment: SDS-PAGE and immunoblot; in vitro phosphorylation reactions (with or without cGMP, in EGTA) of purified recombinant GCAP2 resolved by 15% SDS-PAGE and immunostained for GCAP2; bands above the 25 kDa monomer

Binding result, binds:
B1
B2
B3
B4
